{"source": "patent US20020193327A1", "target": "protein receptor on Chang C cells (human)", "experiment": "125I-labeled virions on Chang C cells pretreated with 10 µg/ml trypsin, subtilisin, proteinase K or bromelain"}
{"substance": "Wild-type Ad37 (adenovirus type 37) particles", "values": [{"measurement": "percent inhibition of specific binding after protease pretreatment of the cells", "result": 50, "unit": "%"}]}
